In US20240270846A1 (published 2024):

These binders were tested against T1, CD3 epsilon homodimer protein (UniProt P07766 23-126) (assay: SPR Biacore T200, CD3 epsilon homodimer immobilized; vs unaltered GLS3000;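 also: antibody variants flowed as analyte over CD3 epsilon homodimer amine-coupled to a CM4 chip, at 25 °C in HBS-EP+ running buffer, fitted with Biacore T200 Evaluation Software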).
T1 construct: construct not described; homodimer as printed; also called CD3 (CD3 epsilon)
T1 sequence (P07766 23-126): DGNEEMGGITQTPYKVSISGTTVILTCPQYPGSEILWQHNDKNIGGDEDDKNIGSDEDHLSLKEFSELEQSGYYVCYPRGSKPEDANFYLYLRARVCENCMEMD

Binder | KD ratio to GLS3000 (Affinity up)
GLS3000 R24A (Kabat) L chain altered form, one-arm antibody with CE115HA000 (antibody, human IgG1, kappa, L234A L235A, N297A, name in Kabat numbering, one-arm antibody) heavy: QVQLVESGGGVVQPGRSLRLSCAASGFTFSNAWMHWVRQAPGKGLEWVAQIKAKSNNYATYYAESVKGRFTISRDDSKNSLYLQMNSLKTEDTAVYYCRYVHYGAYYGVDAWGQGTTVTVSSASTKGPSVFPLAPSSKSTSGGTAALGCLVKDYFPEPVTVSWNSGALTSGVHTFPAVLQSSGLYSLSSVVTVPSSSLGTQTYICNVNHKPSNTKVDKKVEPKSCDKTHTCPPCPAPEAAGGPSVFLFPPKPKDTLMISRTPEVTCVVVDVSHEDPEVKFNWYVDGVEVHNAKTKPREEQYASTYRVVSVLTVLHQDWLNGKEYKCKVSNKALPAPIEKTISKAKGQPREPQVYTLPPSRCELTKNQVSLSCAVKGFYPSDIAVEWESNGQPENNYKTTPPVLDSDGSFFLVSKLTVDKSRWQQGNVFSCSVMHEALHNHYTQKSLSLSPDYKDDDDK EPKSSDKTHTCPPCPAPELLGGPSVFLFPPKPKDTLMISRTPEVTCVVVDVSHEDPEVKFNWYVDGVEVHNAKTKPREEQYNSTYRVVSVLTVLHQDWLNGKEYKCKVSNKALPAPIEKTISKAKGQPREPQVCTLPPSRDELTKNQVSLWCLVKGFYPSDIAVEWESNGQPENNYKTTPPVLDSDGSFFLYSKLTVDKSRWQQGNVFSCSVMHEALHNRYTQKSLSLSP light: DIVMTQSPLSLPVTPGEPASISCASSQSLVHSNRNTYLHWYQQKPGQAPRLLIYKVSNRFSGVPDRFSGSGSGTDFTLKISRVEAEDVGVYYCGQGTQVPYTFGQGTKLEIKRTVAAPSVFIFPPSDEQLKSGTASVVCLLNNFYPREAKVQWKVDNALQSGNSQESVTEQDSKDSTYSLSSTLTLSKADYEKHKVYACEVTHQGLSSPVTKSFNRGEC | 1
GLS3000 R24E (Kabat) L chain altered form, one-arm antibody with CE115HA000 (antibody, human IgG1, kappa, L234A L235A, N297A, name in Kabat numbering, one-arm antibody) heavy: QVQLVESGGGVVQPGRSLRLSCAASGFTFSNAWMHWVRQAPGKGLEWVAQIKAKSNNYATYYAESVKGRFTISRDDSKNSLYLQMNSLKTEDTAVYYCRYVHYGAYYGVDAWGQGTTVTVSSASTKGPSVFPLAPSSKSTSGGTAALGCLVKDYFPEPVTVSWNSGALTSGVHTFPAVLQSSGLYSLSSVVTVPSSSLGTQTYICNVNHKPSNTKVDKKVEPKSCDKTHTCPPCPAPEAAGGPSVFLFPPKPKDTLMISRTPEVTCVVVDVSHEDPEVKFNWYVDGVEVHNAKTKPREEQYASTYRVVSVLTVLHQDWLNGKEYKCKVSNKALPAPIEKTISKAKGQPREPQVYTLPPSRCELTKNQVSLSCAVKGFYPSDIAVEWESNGQPENNYKTTPPVLDSDGSFFLVSKLTVDKSRWQQGNVFSCSVMHEALHNHYTQKSLSLSPDYKDDDDK EPKSSDKTHTCPPCPAPELLGGPSVFLFPPKPKDTLMISRTPEVTCVVVDVSHEDPEVKFNWYVDGVEVHNAKTKPREEQYNSTYRVVSVLTVLHQDWLNGKEYKCKVSNKALPAPIEKTISKAKGQPREPQVCTLPPSRDELTKNQVSLWCLVKGFYPSDIAVEWESNGQPENNYKTTPPVLDSDGSFFLYSKLTVDKSRWQQGNVFSCSVMHEALHNRYTQKSLSLSP light: DIVMTQSPLSLPVTPGEPASISCESSQSLVHSNRNTYLHWYQQKPGQAPRLLIYKVSNRFSGVPDRFSGSGSGTDFTLKISRVEAEDVGVYYCGQGTQVPYTFGQGTKLEIKRTVAAPSVFIFPPSDEQLKSGTASVVCLLNNFYPREAKVQWKVDNALQSGNSQESVTEQDSKDSTYSLSSTLTLSKADYEKHKVYACEVTHQGLSSPVTKSFNRGEC | 0.89
GLS3000 R24D (Kabat) L chain altered form, one-arm antibody with CE115HA000 (antibody, human IgG1, kappa, L234A L235A, N297A, name in Kabat numbering, one-arm antibody) heavy: QVQLVESGGGVVQPGRSLRLSCAASGFTFSNAWMHWVRQAPGKGLEWVAQIKAKSNNYATYYAESVKGRFTISRDDSKNSLYLQMNSLKTEDTAVYYCRYVHYGAYYGVDAWGQGTTVTVSSASTKGPSVFPLAPSSKSTSGGTAALGCLVKDYFPEPVTVSWNSGALTSGVHTFPAVLQSSGLYSLSSVVTVPSSSLGTQTYICNVNHKPSNTKVDKKVEPKSCDKTHTCPPCPAPEAAGGPSVFLFPPKPKDTLMISRTPEVTCVVVDVSHEDPEVKFNWYVDGVEVHNAKTKPREEQYASTYRVVSVLTVLHQDWLNGKEYKCKVSNKALPAPIEKTISKAKGQPREPQVYTLPPSRCELTKNQVSLSCAVKGFYPSDIAVEWESNGQPENNYKTTPPVLDSDGSFFLVSKLTVDKSRWQQGNVFSCSVMHEALHNHYTQKSLSLSPDYKDDDDK EPKSSDKTHTCPPCPAPELLGGPSVFLFPPKPKDTLMISRTPEVTCVVVDVSHEDPEVKFNWYVDGVEVHNAKTKPREEQYNSTYRVVSVLTVLHQDWLNGKEYKCKVSNKALPAPIEKTISKAKGQPREPQVCTLPPSRDELTKNQVSLWCLVKGFYPSDIAVEWESNGQPENNYKTTPPVLDSDGSFFLYSKLTVDKSRWQQGNVFSCSVMHEALHNRYTQKSLSLSP light: DIVMTQSPLSLPVTPGEPASISCDSSQSLVHSNRNTYLHWYQQKPGQAPRLLIYKVSNRFSGVPDRFSGSGSGTDFTLKISRVEAEDVGVYYCGQGTQVPYTFGQGTKLEIKRTVAAPSVFIFPPSDEQLKSGTASVVCLLNNFYPREAKVQWKVDNALQSGNSQESVTEQDSKDSTYSLSSTLTLSKADYEKHKVYACEVTHQGLSSPVTKSFNRGEC | 0.83

Other lines, results leading:

KD ratio to GLS3000 (Affinity up) | Binder
0.92 | GLS3000 R24G (Kabat) L chain altered form, one-arm antibody with CE115HA000 (antibody, human IgG1, kappa, L234A L235A, N297A, name in Kabat numbering, one-arm antibody) heavy: QVQLVESGGGVVQPGRSLRLSCAASGFTFSNAWMHWVRQAPGKGLEWVAQIKAKSNNYATYYAESVKGRFTISRDDSKNSLYLQMNSLKTEDTAVYYCRYVHYGAYYGVDAWGQGTTVTVSSASTKGPSVFPLAPSSKSTSGGTAALGCLVKDYFPEPVTVSWNSGALTSGVHTFPAVLQSSGLYSLSSVVTVPSSSLGTQTYICNVNHKPSNTKVDKKVEPKSCDKTHTCPPCPAPEAAGGPSVFLFPPKPKDTLMISRTPEVTCVVVDVSHEDPEVKFNWYVDGVEVHNAKTKPREEQYASTYRVVSVLTVLHQDWLNGKEYKCKVSNKALPAPIEKTISKAKGQPREPQVYTLPPSRCELTKNQVSLSCAVKGFYPSDIAVEWESNGQPENNYKTTPPVLDSDGSFFLVSKLTVDKSRWQQGNVFSCSVMHEALHNHYTQKSLSLSPDYKDDDDK EPKSSDKTHTCPPCPAPELLGGPSVFLFPPKPKDTLMISRTPEVTCVVVDVSHEDPEVKFNWYVDGVEVHNAKTKPREEQYNSTYRVVSVLTVLHQDWLNGKEYKCKVSNKALPAPIEKTISKAKGQPREPQVCTLPPSRDELTKNQVSLWCLVKGFYPSDIAVEWESNGQPENNYKTTPPVLDSDGSFFLYSKLTVDKSRWQQGNVFSCSVMHEALHNRYTQKSLSLSP light: DIVMTQSPLSLPVTPGEPASISCGSSQSLVHSNRNTYLHWYQQKPGQAPRLLIYKVSNRFSGVPDRFSGSGSGTDFTLKISRVEAEDVGVYYCGQGTQVPYTFGQGTKLEIKRTVAAPSVFIFPPSDEQLKSGTASVVCLLNNFYPREAKVQWKVDNALQSGNSQESVTEQDSKDSTYSLSSTLTLSKADYEKHKVYACEVTHQGLSSPVTKSFNRGEC
0.34 | GLS3000 R24P (Kabat) L chain altered form, one-arm antibody with CE115HA000 (antibody, human IgG1, kappa, L234A L235A, N297A, name in Kabat numbering, one-arm antibody) heavy: QVQLVESGGGVVQPGRSLRLSCAASGFTFSNAWMHWVRQAPGKGLEWVAQIKAKSNNYATYYAESVKGRFTISRDDSKNSLYLQMNSLKTEDTAVYYCRYVHYGAYYGVDAWGQGTTVTVSSASTKGPSVFPLAPSSKSTSGGTAALGCLVKDYFPEPVTVSWNSGALTSGVHTFPAVLQSSGLYSLSSVVTVPSSSLGTQTYICNVNHKPSNTKVDKKVEPKSCDKTHTCPPCPAPEAAGGPSVFLFPPKPKDTLMISRTPEVTCVVVDVSHEDPEVKFNWYVDGVEVHNAKTKPREEQYASTYRVVSVLTVLHQDWLNGKEYKCKVSNKALPAPIEKTISKAKGQPREPQVYTLPPSRCELTKNQVSLSCAVKGFYPSDIAVEWESNGQPENNYKTTPPVLDSDGSFFLVSKLTVDKSRWQQGNVFSCSVMHEALHNHYTQKSLSLSPDYKDDDDK EPKSSDKTHTCPPCPAPELLGGPSVFLFPPKPKDTLMISRTPEVTCVVVDVSHEDPEVKFNWYVDGVEVHNAKTKPREEQYNSTYRVVSVLTVLHQDWLNGKEYKCKVSNKALPAPIEKTISKAKGQPREPQVCTLPPSRDELTKNQVSLWCLVKGFYPSDIAVEWESNGQPENNYKTTPPVLDSDGSFFLYSKLTVDKSRWQQGNVFSCSVMHEALHNRYTQKSLSLSP light: DIVMTQSPLSLPVTPGEPASISCPSSQSLVHSNRNTYLHWYQQKPGQAPRLLIYKVSNRFSGVPDRFSGSGSGTDFTLKISRVEAEDVGVYYCGQGTQVPYTFGQGTKLEIKRTVAAPSVFIFPPSDEQLKSGTASVVCLLNNFYPREAKVQWKVDNALQSGNSQESVTEQDSKDSTYSLSSTLTLSKADYEKHKVYACEVTHQGLSSPVTKSFNRGEC
0.87 | GLS3000 R24Q (Kabat) L chain altered form, one-arm antibody with CE115HA000 (antibody, human IgG1, kappa, L234A L235A, N297A, name in Kabat numbering, one-arm antibody) heavy: QVQLVESGGGVVQPGRSLRLSCAASGFTFSNAWMHWVRQAPGKGLEWVAQIKAKSNNYATYYAESVKGRFTISRDDSKNSLYLQMNSLKTEDTAVYYCRYVHYGAYYGVDAWGQGTTVTVSSASTKGPSVFPLAPSSKSTSGGTAALGCLVKDYFPEPVTVSWNSGALTSGVHTFPAVLQSSGLYSLSSVVTVPSSSLGTQTYICNVNHKPSNTKVDKKVEPKSCDKTHTCPPCPAPEAAGGPSVFLFPPKPKDTLMISRTPEVTCVVVDVSHEDPEVKFNWYVDGVEVHNAKTKPREEQYASTYRVVSVLTVLHQDWLNGKEYKCKVSNKALPAPIEKTISKAKGQPREPQVYTLPPSRCELTKNQVSLSCAVKGFYPSDIAVEWESNGQPENNYKTTPPVLDSDGSFFLVSKLTVDKSRWQQGNVFSCSVMHEALHNHYTQKSLSLSPDYKDDDDK EPKSSDKTHTCPPCPAPELLGGPSVFLFPPKPKDTLMISRTPEVTCVVVDVSHEDPEVKFNWYVDGVEVHNAKTKPREEQYNSTYRVVSVLTVLHQDWLNGKEYKCKVSNKALPAPIEKTISKAKGQPREPQVCTLPPSRDELTKNQVSLWCLVKGFYPSDIAVEWESNGQPENNYKTTPPVLDSDGSFFLYSKLTVDKSRWQQGNVFSCSVMHEALHNRYTQKSLSLSP light: DIVMTQSPLSLPVTPGEPASISCQSSQSLVHSNRNTYLHWYQQKPGQAPRLLIYKVSNRFSGVPDRFSGSGSGTDFTLKISRVEAEDVGVYYCGQGTQVPYTFGQGTKLEIKRTVAAPSVFIFPPSDEQLKSGTASVVCLLNNFYPREAKVQWKVDNALQSGNSQESVTEQDSKDSTYSLSSTLTLSKADYEKHKVYACEVTHQGLSSPVTKSFNRGEC
